# Assay results as given in the nanobody polyreactivity screen of Harvey et al. (2022).
# Test: yeast display, Sf9 membrane polyspecificity reagent, FACS + sequencing; frameworks hold sequencing errors
# Summary of the method: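 Genes from sorted yeast were amplified by colony PCR, read by MiSeq 2 × 250 sequencing and filtered on CDR length. These cells carried a synthetic nanobody library in Saccharomyces cerevisiae BJ5465 and were sorted by FACS into low and high (top ~1%) gates on anti-HA and streptavidin fluorescence. Polyreactivity is labelled according to the gate of origin.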
row,Sequence,polyreactivity (PSR sort gate)
1,QVQLVESGGGLVQAGGSLRLSCAPSGFIFWRNAMGWYRQAPGKEREFVAAITSSGGRTYYADSVKGRFTISRDNAKNTVYLQMNSLKPEDTAVYYCAAEIRDYAKSYSFYWGQGTQVTVSS,high polyreactivity
2,QVQLVESGGGLVQAGGSLRLSCAPSGFTFRGNAMGWYRQAPGKERELVATISRGGNTNYADSVKGRCTISRDNAKNTVYLQMNSLKPEDTAVYYCAAVSFIRSKVAYNYWGQGTQVTVSS,low polyreactivity
3,QVQLVESGGGLVQAGGSLRLSCAPSGFTFRRNAMGWYRQAPGKERELVAVITSSARTNYADSVKGRFTISRDNAKKTVYLEMNSLKPEDTAVYYCAARYHYGVWRERHGYWGQGTKVTVSS,high polyreactivity
4,QVQLVESGGGLVQAGGSLRLSCAPSGFTFSYNAMGWYRQAPGKERELVAAISNSGGSTYYADSVKGRFTISRDNAKYTVYLQMNSLKPEDTAVYYCAADVAQVGYQVGVSEIYPGYEYWGQGTQVTVSS,low polyreactivity
5,QVQLVESGGGLVQAGGSLRLSCAPSGGTFPFNAMGWYRQAPGKERELVAAISGRSGRTYYADSVKGRFTISRDNAKNTVDLQMNRLKPEDTAVYYCAARRWRPYDYWGQGTQVTVSS,high polyreactivity
6,QVQLVESGGGLVQAGGSLRLSCAPSGIIFLGYMGWYRQAPGKEREFVADITFSVDGTYYADSVKGRFTISRDNAKNTVYLQMNSLKPEDNAVYYCAAVSDLQAGTMEYWGQGTEVTVSS,high polyreactivity
7,QVQLVESGGGLVQAGGSLRLSCAPSGIIFRGNAMGWYRQAPGKEREFVAAISLRGSRTYYADSVKGRFTISRDNAKNTVYLQMNSLKQEDTAVYYCAATRPYRYNYWGQGTQVTVSS,high polyreactivity
8,QVQLVESGGGLVQAGGSLRLSCAPSGIIFSPNAMGLYRQAPGKERELVASISSDSSTNYADSVKGRFSISRDNAKNTVYLQMNSLKPEYTAVYYCAADFVVGQAGDWTFWFDYWGQGTQVTVSS,low polyreactivity
9,QVQLVESGGGLVQAGGSLRLSCAPSGIIFYGNAMGWYRPAPGKERELVAAITRSGVRTYYADSVKGRFTISRDNAKKTGYLQMNSLNPEDSAVSYCAAVKPVSSRHYPYDYWGQGTQVTVSS,high polyreactivity
10,QVQLVESGGGLVQAGGSLRLSCAPSGITFRSYAMGWYRQAPGKERELVATISWSGGITYYADSVKGRFTISRDNAKNTVYLQMNSLKPEDTAVYYCATASQSWGRDDYYYWGQGTQVTVSS,low polyreactivity
11,QVQLVESGGGLVQAGGSLRLSCAPSGITFWYYAMGWYRQAPGKERELVAAINKSGGRTYYADSVKGRFTISRDNAKNTVYLQMNSLKPEDTAVYYCAAPRSRSRTSRFDYWGQGTQVTVSS,high polyreactivity
12,QVQLVESGGGLVQAGGSLRLSCAPSGITLDSNAMGWYRQARGKERELVAAINWSTGSTYYADSVKGRFTISRDNAKNTVYLQMNSLKPEDTAVYYCAVDYRYGYFVYVHYEYWGQGTQETVSS,high polyreactivity
13,QVQLVESGGGLVQAGGSLRLSCAPSGLIFDANAMGWYRQAPGKERELVAAISNGDSTYYADSVKGRFTISRDNAKNTLYLQMNSLKPEDTAVYYCNARIIYRKWLLRSGTFNYWGQGTQVTVSS,low polyreactivity
14,QVQLVESGGGLVQAGGSLRLSCAPSGLIFKKYTMGGYRQSPGKERELVASISKSGGSTYYADSVKGRFTFSRDNAKNTYYLQMNCLKPEDTAVYYCNRVSHYIRFDYWVQGTQVTVSS,low polyreactivity
15,QVQLVESGGGLVQAGGSLRLSCAPSGNTFFLNAMGWYRQAPGKERELVAAITSSGGSTYYADSVKGRFTISRDNAKNTVYLQMNSLKPEDTAVYYCGTDRSYPPRSLNRRGPYEYWGQGTQVTVSS,low polyreactivity
16,QVQLVESGGGLVQAGGSLRLSCAPSGRTFCPYAMGWYRKAPGKERELVAAISSSGSTTYYADSVKGRFTISRDNAKNTVYLQMNSLKPEDNAVYYCAAVYLRGDGEYDYWGQVTQVTVSS,low polyreactivity
17,QVQLVESGGGLVQAGGSLRLSCAPSGRTFRFYVMGWYRQAPGKERELVAAISRGGGSTYYADSVKGRFTISRDNAKNTVYLQMNSLKPEDTAVYYCAAKPYKTRSSYWGDYYWGQGTQVTVSS,high polyreactivity
